Experiment [1] has as its target T1, LILRB2 expressed on THP1 cells (human, UniProt Q8N423 22-597).
T1 construct: whole, on cells; also called THP1 LILRB2 expressing cells; THP1-LILRB2 cells
Put plainly: flow cytometry competition with PE HLA-G tetramer on THP1-LILRB2 cells. Here is the method: (§1) LILRB1 or LILRB2 overexpressing THP1 cells were prepared in FACS buffer (0.5% BSA in PBS) and seeded in 100 μl/well (96 well plate) at 1λ10⁶ cells/ml concentration. The tested antibodies were serially diluted 3-fold into assay buffer starting from 200 nM. 40 μl of serial diluted antibody together with 40 μl of PE labelled HLA-G tetramer (FRED HUTCH IMT40509) at 2 ug/ml were added to each well and incubated on ice for 1 hour. The cells were washed 2 times with FACS buffer and resuspended in 50 μl/well FACS buffer containing 1:1000 dilution of LIVE/Dead fixable violet dead cell stain (Invitrogen #L34964), incubated on ice for 15 minutes. The cells were then washed with FACS buffer for 2 times and resuspended in 80 μl of Cytofix buffer (BD Cat #554655).
(§2) The cell-based HLA-G ligand blocking assays followed the same procedure as described in Example 2.

Another experiment concerns the target huLILRA4 (human, UniProt P59901 24-446, limits assumed). Put plainly: ELISA, target coated on the plate, detection with anti-human IgG-HRP, OD at 450 nm. The protocol:
(§3) Purified target proteins huLILRA1, A2, A3, A4, A5, A6, huLILRB1, B2, B3, B4 and B5 (all purchased from R&D) were coated on Nunc-Maxisorb 96-well ELISA plate at 1 ug/ml concentration and stored at 4° C. overnight. Plate was washed 3 times with PBS+0.05% Tween-20 and blocked with PBS+3% milk for 1 hour at room temperature. Tested LILRB1/LILRB2 bispecific antibody was serially diluted 5-fold in PBS+3% milk, starting from 133 nM. Blocking solution was removed and serially diluted antibody was added and incubated for 1 hour at room temperature. Plate was washed and a secondary detecting antibody (goat anti-human IgG-HRP from Invitrogen, Cat #31413, 1:5000) was added and incubated for 30 minutes at room temperature. Plate was washed again for 5 times; signal was developed using TMB substrate and the reaction stopped with 0.18M H₂SO₄. Absorbance was read at 450 nm on an envision plate reader (Perkin Elmer). […] There were no binding activities observed to any of the huLILRA family members tested, and no binding to huLILRB3, B4 or B5.

The next experiment concerns the target huLILRA6 (human, UniProt Q6PI73 24-447, limits assumed). The experiment is described as above. The protocol:
as §3

The next experiment has as its target huLILRA3 (human, UniProt Q8N6C8 24-439). The experiment is described as above. The protocol:
as §3

Experiment [2] addresses T2, huLILRA2 (human, UniProt Q8N149 24-449, limits assumed). Described as above. Here is the method: as §3
The target of experiment [3] is T3, huLILRA1 (human, UniProt O75019 17-461, limits assumed). Described as above. The protocol:
as §3

The target of experiment [4] is T4, huLILRA5 (human, UniProt A6NI73 42-268, limits assumed). The description is as above. Here is the method:
as §3

In a further experiment the target is huLILRB4 (human, UniProt Q8NHJ6 22-259, limits assumed). The description is as above. The protocol:
as §3

In a further experiment the target is huLILRB3 (human, UniProt O75022 24-443, limits assumed). The description is as above. The protocol: as §3
Experiment [5] concerns the target T5, human LILRB2 (huLILRB2), purified recombinant protein (human, UniProt Q8N423 22-458, limits assumed).
T5 construct: Bought protein, used as the SPR analyte and as the ELISA coat; also called huLILIB2
The description is as above. The protocol:
as §3

The target of a further experiment is huLILRB5 (human, UniProt O75023 24-458, limits assumed). The experiment is described as above. Here is the method: as §3
The target of experiment [6] is T5, human LILRB2 (huLILRB2), purified …. The experiment is described as follows: SPR (Biacore 8K, 37 C), antibody captured by anti-human Fc, huLILRB2 as analyte, 1:1 fit.
In experiment [7] the target is T6, LILRB1 expressed on THP1 cells (human, UniProt Q8NHL6 24-650).
T6 construct: whole, on cells; also called THP1 LILRB1 expressing cells; THP1-LILRB1 cells
Put plainly: flow cytometry competition with PE HLA-G tetramer on THP1-LILRB1 cells. Here is the method:
as §1, §2

The target in experiment [8] is T7, human LILRB1 (huLILRB1), purified recombinant protein from R&D Systems (human, UniProt Q8NHL6 24-458, limits assumed).
T7 construct: Bought protein, used as the SPR analyte and as the ELISA coat; The catalog number 8429-T4 is printed once for 'human LILRB2 or LILRB1'
The experiment is described as follows: SPR (Biacore 8K, 37 C), antibody captured by anti-human Fc, huLILRB1 as analyte, 1:1 fit. Here is the method: Biacore kinetic assays were conducted at 37° C. with a collection rate of 10 Hz using the Biacore 8K and 8K+instruments (Cytiva). Anti-LILRB2 antibodies were captured by an anti-human IgG (Fc specific) antibody (BR-1008-39, Cytiva) covalently coupled onto a CM5 sensor chip (29-1496-03, Cytiva) according to the manufacturer's instructions. The final capture levels of the antibodies ranged from 20 resonance units (RU) to 60 RU. HBS-EP+pH 7.4 (10 mM HEPES pH 7.4, 150 mM NaCl, 3 mM EDTA, 0.05% Tween 20) was used as sample and running buffer. Flow cell 1 was used as a reference flow cell. […] Dilutions were prepared in duplicate and injected over all flow cells for 60 s at flow rate of 50 μl per minute. Dissociation was monitored for 600 s and the surface was regenerated with two 30 s injections of 3M MgCl₂ at flow rate of 50 μl per minute. The resulting data was double referenced (Myszka, D. G. Improving biosensor analysis. J. Mol. Recognit. 12:279-284; (1999). Rate constants and affinities were determined by fitting the sensorgram data to a Langmuir 1:1 model using Biacore Insight Evaluation software version 3.0.12 (Cytiva). Results are summarized in Table 7.

Experiment [9] has as its target T2, huLILRA2. The experiment is described as follows: SPR (Biacore), antibody captured.
The target of experiment [10] is T3, huLILRA1. Put plainly: SPR (Biacore), antibody captured.
For experiment [11], the target named is T4, huLILRA5. The experiment is described as follows: SPR (Biacore), antibody captured.
Experiment [12] has as its target T6, LILRB1 expressed on THP1 cells. The experiment is described as follows: flow cytometry competition with PE HLA-G tetramer on THP1-LILRB1 cells. The protocol:
as §1
The source holds these as a separate data set.

For experiment [13], the target named is T7, human LILRB1 (huLILRB1), purified …. The experiment is described as follows: SPR (Biacore 8K, 37 C), antibody captured by anti-human Fc, huLILRB1 as analyte, 1:1 fit. The protocol: Biacore kinetic assays were conducted at 37° C. with a collection rate of 10 Hz using the Biacore 8K and 8K+ instruments (Cytiva). […] The final capture levels of the antibodies ranged from 20 resonance units (RU) to 60 RU. HBS-EP+pH 7.4 (10 mM HEPES pH 7.4, 150 mM NaCl, 3 mM EDTA, 0.05% Tween 20) was used as sample and running buffer. Flow cell 1 was used as a reference flow cell. Two-fold serial dilutions of human LILRB2 or LILRB1 (R&D Systems, Catalog number: 8429-T4) were prepared with concentrations from 45 nM to 1.667 nM for LILRB2; 405 nM to […] for LILRB1. Dilutions were prepared in duplicate and injected over all flow cells for 60 s at flow rate of 50 μl per minute. Dissociation was monitored for 600 s and the surface was regenerated with two 30 s injections of 3M MgCl₂ at flow rate of 50 μl per minute. The resulting data was double referenced (Myszka, D. G. Improving biosensor analysis. J. Mol. Recognit. 12:279-284; (1999). Rate constants and affinities were determined by fitting the sensorgram data to a Langmuir 1:1 model using Biacore Insight Evaluation software version 3.0.12 (Cytiva).
This is another data set of the same source.

The target in experiment [14] is T6, LILRB1 expressed on THP1 cells. Put plainly: flow cytometry competition with PE HLA-G tetramer on THP1-LILRB1 cells (THP-B1). The protocol:
as §1

Substitutions are numbered along the chain they refer to. Read-outs that look alike come from different tables or passages of the source.

T6 sequence (Q8NHL6 24-650): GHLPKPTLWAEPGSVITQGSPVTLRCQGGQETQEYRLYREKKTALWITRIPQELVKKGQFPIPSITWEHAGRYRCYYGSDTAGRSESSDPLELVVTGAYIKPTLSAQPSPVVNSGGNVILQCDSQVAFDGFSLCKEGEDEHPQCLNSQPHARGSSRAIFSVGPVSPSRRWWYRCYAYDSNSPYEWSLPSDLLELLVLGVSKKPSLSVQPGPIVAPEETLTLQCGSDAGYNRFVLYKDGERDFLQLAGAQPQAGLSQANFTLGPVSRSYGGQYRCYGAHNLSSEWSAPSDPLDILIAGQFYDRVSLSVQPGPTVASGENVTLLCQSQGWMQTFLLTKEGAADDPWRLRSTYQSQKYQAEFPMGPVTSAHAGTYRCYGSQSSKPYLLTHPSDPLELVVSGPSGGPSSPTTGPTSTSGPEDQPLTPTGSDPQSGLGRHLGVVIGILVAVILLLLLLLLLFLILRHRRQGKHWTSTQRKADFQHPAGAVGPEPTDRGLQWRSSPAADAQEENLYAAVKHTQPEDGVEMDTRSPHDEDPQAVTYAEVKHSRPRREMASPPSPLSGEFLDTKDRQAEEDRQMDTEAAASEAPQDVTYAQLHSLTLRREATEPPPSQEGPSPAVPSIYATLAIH
T7 sequence (Q8NHL6 24-458 limits assumed): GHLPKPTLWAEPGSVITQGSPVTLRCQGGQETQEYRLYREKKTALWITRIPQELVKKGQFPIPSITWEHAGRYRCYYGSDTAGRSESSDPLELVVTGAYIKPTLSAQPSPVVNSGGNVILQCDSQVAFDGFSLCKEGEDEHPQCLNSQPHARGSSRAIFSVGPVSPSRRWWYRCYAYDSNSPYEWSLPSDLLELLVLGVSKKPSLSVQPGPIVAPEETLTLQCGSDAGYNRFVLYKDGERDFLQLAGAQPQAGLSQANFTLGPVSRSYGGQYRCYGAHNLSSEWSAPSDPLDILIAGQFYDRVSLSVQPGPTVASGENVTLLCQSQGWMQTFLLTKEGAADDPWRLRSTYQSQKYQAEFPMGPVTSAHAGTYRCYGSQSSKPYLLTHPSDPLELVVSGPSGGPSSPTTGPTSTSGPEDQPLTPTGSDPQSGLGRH
T5 sequence (Q8N423 22-458 limits assumed): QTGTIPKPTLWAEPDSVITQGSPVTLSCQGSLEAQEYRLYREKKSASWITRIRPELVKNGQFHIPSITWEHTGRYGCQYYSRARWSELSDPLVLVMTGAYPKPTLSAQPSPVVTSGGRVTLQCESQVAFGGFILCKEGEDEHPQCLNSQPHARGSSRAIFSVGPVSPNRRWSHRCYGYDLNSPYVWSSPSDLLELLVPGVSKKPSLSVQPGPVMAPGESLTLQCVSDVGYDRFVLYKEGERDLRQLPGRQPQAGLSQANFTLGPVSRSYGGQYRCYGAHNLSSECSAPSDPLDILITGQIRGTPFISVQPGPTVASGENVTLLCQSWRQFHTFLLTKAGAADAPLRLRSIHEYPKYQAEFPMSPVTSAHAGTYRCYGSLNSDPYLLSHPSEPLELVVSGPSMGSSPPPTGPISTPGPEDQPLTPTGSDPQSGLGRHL
T2 sequence (Q8N149 24-449 limits assumed): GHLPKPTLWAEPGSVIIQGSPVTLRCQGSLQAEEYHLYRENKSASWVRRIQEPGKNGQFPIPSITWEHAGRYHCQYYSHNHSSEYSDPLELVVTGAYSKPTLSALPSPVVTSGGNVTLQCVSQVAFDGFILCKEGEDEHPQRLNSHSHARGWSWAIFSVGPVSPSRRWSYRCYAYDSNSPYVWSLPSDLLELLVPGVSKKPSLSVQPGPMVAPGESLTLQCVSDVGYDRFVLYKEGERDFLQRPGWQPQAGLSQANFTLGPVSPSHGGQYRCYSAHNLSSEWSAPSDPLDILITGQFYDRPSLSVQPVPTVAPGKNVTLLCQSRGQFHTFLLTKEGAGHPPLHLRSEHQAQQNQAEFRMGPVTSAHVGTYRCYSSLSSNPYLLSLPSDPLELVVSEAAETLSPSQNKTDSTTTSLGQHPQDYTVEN
T1 sequence (Q8N423 22-597): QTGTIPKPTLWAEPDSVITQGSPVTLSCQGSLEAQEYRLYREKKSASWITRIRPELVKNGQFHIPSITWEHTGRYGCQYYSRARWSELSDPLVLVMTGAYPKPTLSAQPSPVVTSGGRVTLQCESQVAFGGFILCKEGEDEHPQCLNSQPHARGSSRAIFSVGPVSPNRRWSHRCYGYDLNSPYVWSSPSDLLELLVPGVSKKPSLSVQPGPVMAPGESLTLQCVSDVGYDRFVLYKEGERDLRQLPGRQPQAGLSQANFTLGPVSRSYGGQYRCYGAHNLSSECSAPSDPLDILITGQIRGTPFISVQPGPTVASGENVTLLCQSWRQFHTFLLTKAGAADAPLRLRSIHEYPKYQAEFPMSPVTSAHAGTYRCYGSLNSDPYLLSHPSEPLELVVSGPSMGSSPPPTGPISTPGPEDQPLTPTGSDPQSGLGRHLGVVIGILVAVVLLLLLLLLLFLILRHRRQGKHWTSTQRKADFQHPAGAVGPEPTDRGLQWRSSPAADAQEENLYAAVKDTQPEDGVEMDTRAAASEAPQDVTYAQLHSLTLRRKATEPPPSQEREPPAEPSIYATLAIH
T4 sequence (A6NI73 42-268 limits assumed): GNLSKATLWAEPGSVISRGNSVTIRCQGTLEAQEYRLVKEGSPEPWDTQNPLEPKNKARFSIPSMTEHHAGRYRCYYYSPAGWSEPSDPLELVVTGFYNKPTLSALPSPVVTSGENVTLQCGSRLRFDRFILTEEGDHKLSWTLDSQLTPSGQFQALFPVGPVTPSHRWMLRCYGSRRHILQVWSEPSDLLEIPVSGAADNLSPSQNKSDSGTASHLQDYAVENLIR
T3 sequence (O75019 17-461 limits assumed): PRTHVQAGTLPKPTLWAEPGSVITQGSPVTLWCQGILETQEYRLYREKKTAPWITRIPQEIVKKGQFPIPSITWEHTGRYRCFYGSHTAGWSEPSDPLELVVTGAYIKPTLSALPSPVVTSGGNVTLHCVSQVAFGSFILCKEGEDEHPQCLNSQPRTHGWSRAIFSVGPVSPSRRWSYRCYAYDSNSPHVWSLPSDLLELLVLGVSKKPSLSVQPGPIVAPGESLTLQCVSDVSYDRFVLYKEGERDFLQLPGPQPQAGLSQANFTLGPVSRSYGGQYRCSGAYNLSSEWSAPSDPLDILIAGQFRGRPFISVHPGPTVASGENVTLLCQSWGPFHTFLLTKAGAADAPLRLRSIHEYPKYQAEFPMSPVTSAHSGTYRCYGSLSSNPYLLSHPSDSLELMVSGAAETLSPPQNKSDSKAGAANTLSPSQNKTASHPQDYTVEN
Chain of huLILRB5 (O75023 24-458 limits assumed): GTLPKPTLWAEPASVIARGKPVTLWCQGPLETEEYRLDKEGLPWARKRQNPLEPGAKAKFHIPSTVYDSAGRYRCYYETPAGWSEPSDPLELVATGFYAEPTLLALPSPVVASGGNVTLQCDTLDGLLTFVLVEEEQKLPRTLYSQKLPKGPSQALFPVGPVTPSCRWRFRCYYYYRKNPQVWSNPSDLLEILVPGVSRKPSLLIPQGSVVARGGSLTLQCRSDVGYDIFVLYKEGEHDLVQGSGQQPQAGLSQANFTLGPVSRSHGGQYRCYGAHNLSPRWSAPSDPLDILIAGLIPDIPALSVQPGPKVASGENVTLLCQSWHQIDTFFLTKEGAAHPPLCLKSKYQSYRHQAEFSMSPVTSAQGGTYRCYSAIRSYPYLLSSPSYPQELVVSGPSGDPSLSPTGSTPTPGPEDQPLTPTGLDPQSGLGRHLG
Chain of huLILRB3 (O75022 24-443 limits assumed): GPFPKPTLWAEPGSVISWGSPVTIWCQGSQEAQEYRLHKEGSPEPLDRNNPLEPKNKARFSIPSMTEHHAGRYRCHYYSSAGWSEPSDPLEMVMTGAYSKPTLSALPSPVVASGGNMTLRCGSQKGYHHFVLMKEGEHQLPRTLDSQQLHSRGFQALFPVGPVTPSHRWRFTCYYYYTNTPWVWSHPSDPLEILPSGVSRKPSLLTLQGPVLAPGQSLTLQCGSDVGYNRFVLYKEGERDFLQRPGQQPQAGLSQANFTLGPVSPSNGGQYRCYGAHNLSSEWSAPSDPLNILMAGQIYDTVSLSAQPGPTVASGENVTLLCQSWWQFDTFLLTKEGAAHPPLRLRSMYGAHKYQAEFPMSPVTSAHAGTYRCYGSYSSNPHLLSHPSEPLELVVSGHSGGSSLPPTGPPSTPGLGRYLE
Chain of huLILRA3 (Q8N6C8 24-439 limits assumed): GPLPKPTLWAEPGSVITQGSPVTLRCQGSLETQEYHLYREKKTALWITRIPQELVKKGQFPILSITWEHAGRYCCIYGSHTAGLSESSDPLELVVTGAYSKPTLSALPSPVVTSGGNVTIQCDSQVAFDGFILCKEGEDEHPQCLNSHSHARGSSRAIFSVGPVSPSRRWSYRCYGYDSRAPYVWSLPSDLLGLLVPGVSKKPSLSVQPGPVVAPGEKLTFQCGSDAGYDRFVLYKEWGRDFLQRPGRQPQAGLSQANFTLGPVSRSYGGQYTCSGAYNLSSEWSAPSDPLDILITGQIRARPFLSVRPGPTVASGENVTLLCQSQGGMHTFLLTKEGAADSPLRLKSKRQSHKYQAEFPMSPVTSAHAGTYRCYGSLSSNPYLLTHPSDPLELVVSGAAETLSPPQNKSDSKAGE
Chain of huLILRA4 (P59901 24-446 limits assumed): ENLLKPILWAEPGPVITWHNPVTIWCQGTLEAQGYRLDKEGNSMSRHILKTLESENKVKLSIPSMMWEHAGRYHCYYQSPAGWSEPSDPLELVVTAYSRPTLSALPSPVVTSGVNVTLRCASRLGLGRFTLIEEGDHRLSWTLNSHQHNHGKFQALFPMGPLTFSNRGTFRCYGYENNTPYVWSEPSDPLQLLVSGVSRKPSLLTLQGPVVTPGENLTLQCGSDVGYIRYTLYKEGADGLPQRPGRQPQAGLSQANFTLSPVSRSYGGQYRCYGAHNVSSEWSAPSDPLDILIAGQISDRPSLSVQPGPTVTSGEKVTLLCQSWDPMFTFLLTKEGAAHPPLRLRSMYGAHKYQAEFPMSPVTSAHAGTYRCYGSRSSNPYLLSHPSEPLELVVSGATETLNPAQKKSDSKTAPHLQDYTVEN

B1: LILRB1xLILRB2 bispecific antibody BsAb-1882 (bispecific antibody)
heavy 1: not shown
light 1: SYELTQPPSVSVSPGQTASITCGGNNIGSKGVHWYQQKPGQSPVLVISYDSDRPSGIPERFSGSNSGNTATLTISGTQAMDEADYYCQVWDSSTRVFGTGTKVTVLGQPKAAPSVTLFPPSSEELQANKATLVCLISDFYPGAVTVAWKADSSPVKAGVETTTPSKQSNNKYAASSYLSLTPEQWKSHRSYSCQVTHEGSTVEKTVAPTECSDKTHTCPPCPAPEAAGAPSVFLFPPKPKDTLMISRTPEVTCVVVDVSHEDPEVKFNWYVDGVEVHNAKTKPREEQYNSTYRVVSVLTVLHQDWLNGKEYKCKVSNKALPAPIEKTISKAKGQPREPQVYTLPPCREEMTKNQVSLSCAVKGFYPSDIAVEWESNGQPENNYKTTPPVLDSDGSFFLVSKLTVDKSRWQQGNVFSCSVMHEALHNHYTQKSLSLSPGK
heavy 2: EVQLLESGGGLVQPGGSLRLSCAASGFTFSSYAMSWVRQAPGKGLEWVSAISGSGGSTYYADSVKGRFTISRDNSKNTLYLQMNSLRAEDTAVYYCWRWLNLGDAFDIWGQGTMVTVSSASTKGPSVFPLAPSSKSTSGGTAALGCLVKDYFPEPVTVSWNSGALTSGVHTFPAVLQSSGLYSLSSVVTVPSSSLGTQTYICNVNHKPSNTKVDKKVEPKSCDKTHTCPPCPAPEAAGAPSVFLFPPKPKDTLMISRTPEVTCVVVDVSHEDPEVKFNWYVDGVEVHNAKTKPREEQYNSTYRVVSVLTVLHQDWLNGKEYKCKVSNKALPAPIEKTISKAKGQPREPQVCTLPPSREEMTKNQVSLWCLVKGFYPSDIAVEWESNGQPENNYKTTPPVLDSDGSFFLYSKLTVDKSRWQQGNVFSCSVMHEALHNHYTQKSLSLSPGK
light 2: not shown
notes: The B1 arm Fc chain is joined to the light chain CL; also called LILRB1/LILRB2 bispecific antibody
Turning to B1, the IC50 in experiment [1] was 15.4 nM; in experiment [7] it was 37.6 nM. In addition, the binding result with huLILRA4, with huLILRA6, with huLILRA3, with huLILRA2 [2], in the experiment with huLILRA1 [3] and in the experiment with huLILRA5 [4] was “no binding (tested: about 130 nM)” throughout. The binding result with huLILRB4, with huLILRB3 and in the experiment with huLILRB5 was “no binding (tested: about 130 nM)” throughout. For the same molecule, the concentration for a half-maximal effect (EC50 (read off the curve)) in experiment [5] is around 0.6 nM. Moreover, the results for the Kd in experiment [6] and in experiment [8] were 0.73 nM and 29.8 nM, respectively. Moreover, the figures for the off-rate constant (koff) in experiment [6] and in [8] were 0.000323 s⁻¹ and 0.0135 s⁻¹, respectively. Also, the results for the kon in [6] and in [8] were 443000 M⁻¹ s⁻¹ and 457000 M⁻¹ s⁻¹, respectively. The “t½” value is 35.8 min in experiment [6] and 51.3 s in experiment [8].

B2: LILRB1xLILRB2 bispecific antibody BsAb-1880 (bispecific antibody, human IgG1)
heavy 1: not shown
light 1: SYELTQPPSVSVSPGQTASITCGGNNIGSKGVHWYQQKPGQSPVLVISYDSDRPSGIPERFSGSNSGNTATLTISGTQAMDEADYYCQVWDSSTRVFGTGTKVTVLGQPKAAPSVTLFPPSSEELQANKATLVCLISDFYPGAVTVAWKADSSPVKAGVETTTPSKQSNNKYAASSYLSLTPEQWKSHRSYSCQVTHEGSTVEKTVAPTECS
heavy 2: B1 heavy 2 with D223E, C351Y, W368T, L370E
light 2: not shown
Take B2: the IC50 in [1] is 16.1 nM; in experiment [7], 43.2 nM.

B3: anti-LILRB1 antibody Ab-B1-1704 (antibody, human IgG1, lambda, V domains shown)
VH: EVQLVESGGGLVQPGGSLRLSCAASGFTFSSYAMHWVRQAPGKGLEWVAVISYDGSNKYYADSVKGRFTISRDNAKNSLYLQMNSLRAEDTAVYYCARDKGIGTSPLDYWGQGTLVTVSS
VL: SYELTQPPSVSVSPGQTASITCGGNNIGSKGVHWYQQKPGQSPVLVISYDSDRPSGIPERFSGSNSGNTATLTISGTQAMDEADYYCQVWDSSTRVFGTGTKVTVLG
With B3, in the experiment with huLILRA2 [9], the binding result was “no binding”. Further, the binding result in the experiment with huLILRA1 [10] was “no binding”. For the same molecule, in the experiment with huLILRA5 [11], the binding result is “no binding”. The IC50 in experiment [12] turned out to be 1.5 nM. Moreover, in experiment [13], the dissociation constant (Kd) was determined as 26 nM, the koff stood at 0.014 s⁻¹, the association rate constant (kon) was found to be 539000 M⁻¹ s⁻¹ and the “t½” value was 49.5 s. Further, the midpoint of the response in experiment [14], the EC50, lay at 2.69 nM.

The values are drawn from patent US20240360214A1 (Pfizer, published 2024).
